# Biological target: bacterial recombinant GST-Smad3 (UniProt P84022)
# Sequence (P84022 whole entry, looked up): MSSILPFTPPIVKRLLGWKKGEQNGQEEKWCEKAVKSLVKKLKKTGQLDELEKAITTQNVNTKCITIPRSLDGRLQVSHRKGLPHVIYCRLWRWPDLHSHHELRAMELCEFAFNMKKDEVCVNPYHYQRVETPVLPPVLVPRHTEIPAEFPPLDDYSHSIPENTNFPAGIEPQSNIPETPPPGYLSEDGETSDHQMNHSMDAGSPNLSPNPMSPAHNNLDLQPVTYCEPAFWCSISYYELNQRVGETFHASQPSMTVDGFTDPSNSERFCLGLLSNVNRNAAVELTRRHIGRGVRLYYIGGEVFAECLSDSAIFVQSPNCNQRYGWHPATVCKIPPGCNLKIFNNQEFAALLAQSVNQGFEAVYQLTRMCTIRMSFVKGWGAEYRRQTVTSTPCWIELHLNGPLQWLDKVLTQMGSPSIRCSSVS
substance,measurement,value
phosphorylated (active) JNK,"phosphorylation of recombinant Smad3 in an in vitro kinase assay, detected by immunoblotting",the linker region of Smad3 was directly phosphorylated by p38 and JNK
phosphorylated (active) p38,"phosphorylation of recombinant Smad3 in an in vitro kinase assay, detected by immunoblotting",the linker region of Smad3 was directly phosphorylated by p38 and JNK

# — patent US20050079559
